Consider 39 sequences from the supplement of paper PMC9170038.

The test system of data set [1] is MS2 coat protein. The data set is described as follows: apparent KD of MS2 coat protein, switch OFF state (with FMN for OFF switches, without FMN for ON switches); designed switch direction (-1 OFF switch, 1 ON switch): -1; higher = weaker reporter binding. As to conditions: FMN input: 0 or 200 uM; Eterna round: R93 (includes R88 designs). In short, it runs like this: (§1)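 Each design's apparent KD comes from the median of binding-curve fits to its normalised clusters. Those clusters carried RNA switches transcribed on-chip from Illumina sequencing clusters. SNAP-549-labelled MS2 coat protein was titrated onto them in twofold steps (0.7 or 1.5 nM to 3 µM; per step 0.8–1.5 h down to 10–20 min). Conditions were 100 mM Tris-HCl pH 7.5, 80 mM KCl, 4 mM MgCl2, without or with constant ligand.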

For data set [2], the system named is MS2 coat protein. The experiment in a line: apparent KD of MS2 coat protein, switch ON state; designed switch direction (-1 OFF switch, 1 ON switch): -1; higher = weaker reporter binding. The conditions noted are these: FMN input: 0 or 200 uM; Eterna round: R93 (includes R88 designs). An outline of the steps:
as §1

Take “AAAAAACAUGAGGAUCACCCAUGUGAGGAUAUCGGAGGAGGAGGAGGAGGAGGAGGAGCGAGAAGGUACAAAAA [salish99-Ex1-04]”: the “apparent KD of MS2 coat protein” value with MS2 coat protein [1] was 31.5 nM; with MS2 coat protein [2], 14.4 nM.

Regarding “AAAAAACAUGAGGAUCACCCAUGUGAGGAUAUCUAAAACAAAACAAAAACAAAACAAAGGAGAAGGUAUAUGAA [Amethyst 67]”, the “apparent KD of MS2 coat protein” value with MS2 coat protein [1] was determined as 29.2 nM; with MS2 coat protein [2], 19 nM.

In the case of “AAAAAACAUGAGGAUCACCCAUGUGAGGAUAUCUGUAUUCAAUCCUCGGAUUGAAUACAGAGAAGGCACAUGGA [Ex1: 610]”, the “apparent KD of MS2 coat protein” value with MS2 coat protein [1] was 13.8 nM; in the data set on MS2 coat protein [2] it was 46.4 nM.

“AAAAAACAUGAGGAUCACCCAUGUGAGGAUAUGACGUAAAUAAAGAAAGAAUAAAUCGUCAGAAGGCACAAAAA [Mat - Exclusion 1 - Eli mod - D72]”: the “apparent KD of MS2 coat protein” value worked out at 40.3 nM in the data set with MS2 coat protein [1] and 31.4 nM in the data set on MS2 coat protein [2].

“AAAAAACAUGAGGAUCACCCAUGUGAGGAUAUGAUGCGAAUAAAGAAAGAAGAAAGCAUCAGAAGGCACAAAAA [58%, Disencluded 3, 2]”: the figures for the “apparent KD of MS2 coat protein” value in the data set on MS2 coat protein [1] and in the data set with MS2 coat protein [2] were 43.5 nM and 25.8 nM, respectively.

As to “AAAAAACAUGAGGAUCACCCAUGUGAGGAUAUGAUGCGAAUAAAGAAAGAAUAAAGCAUCAGAAGGCACACCAA [Mat - Exclusion 1 - Eli mod - D61]”, the figures for the “apparent KD of MS2 coat protein” value with MS2 coat protein [1] and in the data set on MS2 coat protein [2] were 48.7 nM and 27.9 nM, respectively.

For “AAAAAACAUGAGGAUCACCCAUGUGAGGAUAUGCAAAACCCAUAUAAAAAGGGAAAAAGCAGAAGGUACAAAAA [Starry Exclusion 1.2 (wbt round 1 mod)]”, the “apparent KD of MS2 coat protein” value with MS2 coat protein [1] is 21.3 nM; in the data set on MS2 coat protein [2], 20.7 nM.

For the sequence “AAAAAACAUGAGGAUCACCCAUGUGAGGAUAUGCGAAAAUAAAAUAAAUAAAUAAAAAGCAGAAGGCACACCAA [Mat - Exclusion 1 - Eli mod - D60]”, the “apparent KD of MS2 coat protein” value amounted to 41.1 nM with MS2 coat protein [1] and 25.3 nM with MS2 coat protein [2].

For “AAAAAACAUGAGGAUCACCCAUGUGAGGAUAUGCUAAAAAAAUCCGCAUAAAAAAAUAGCAGAAGGCACAUAAA [PK1]”, the “apparent KD of MS2 coat protein” value with MS2 coat protein [1] amounted to 44.1 nM; with MS2 coat protein [2], 25 nM.

Turning to “AAAAAACAUGAGGAUCACCCAUGUGAGGAUAUGGAAAGAAAAAAAAAGAAAGAAAAAACCAGAAGGCACAAAAA [Amethyst 30]”, the “apparent KD of MS2 coat protein” value amounted to 23.8 nM with MS2 coat protein [1] and 42.8 nM with MS2 coat protein [2].

Consider “AAAAAACAUGAGGAUCACCCAUGUGAGGAUAUUGGUAUUCAAGAUAUAAUCUUAAUAGCGAGAAGGCGCAAAAA [Brourd 613 Mod 17 - Jieux - Exclusion 1]”, for which the results for the “apparent KD of MS2 coat protein” value in the data set with MS2 coat protein [1] and in the data set on MS2 coat protein [2] were 21.9 nM and 24.1 nM, respectively.

On to “AAAAAACAUGAGGAUCACCCAUGUGAGGAUAUUGGUAUUCAGGAUAUAAUCUCAAUAGCGAGAAGGCGCAUAAA [Brourd 613 Mod 16 - Jieux - Exclusion 1]”, for which the “apparent KD of MS2 coat protein” value was found to be 18.1 nM with MS2 coat protein [1] and 20.9 nM with MS2 coat protein [2].

For the sequence “AAAAAACGAGGAUAUACAAAAACAAAAGGAACAAAAUACAAACAUGAGGAUCACCCAUGUAGAAGGCGUAAAAA [Default title]”, the figures for the “apparent KD of MS2 coat protein” value in the data set on MS2 coat protein [1] and in the data set with MS2 coat protein [2] were 23.5 nM and 29.5 nM, respectively.

Take “AAAAAAGGAGGAUAUACGAACAUGUCAAAAGACGUGAAGGGACAUGAGGAUCACCCAUGUAGAAGGUUUAAAAA [JL Wide Open 32]”: the “apparent KD of MS2 coat protein” value in the data set with MS2 coat protein [1] was determined as 15 nM; in the data set on MS2 coat protein [2] it was 48 nM.

Turning to “AAAAAAUGAGGAUAUACAUGAAAAAAAAAAAAAAAAAAAAAACAUGAGGAUCACCCAUGUAGAAGGCGUAAAAA [Flexi GU!]”, the results for the “apparent KD of MS2 coat protein” value with MS2 coat protein [1] and in the data set with MS2 coat protein [2] were 29 nM and 39.8 nM, respectively.

Turning to “AAAAACGUAGGAUAUACAUGAGGAUCACCCAUGUAAAAAAAAAAGGGAGAAAAAAGAAGUAGAAGGACGAAAAA [JR_Exc003_Sub002]”, the “apparent KD of MS2 coat protein” value came out at 27.1 nM in the data set on MS2 coat protein [1] and 32.4 nM with MS2 coat protein [2].

“AAAAAGAAAGGAUAUACGAACAUGUCGAAAGACGUGAAGGGACAUGAGGAUCACCCAUGUAGAAGGUUUAAAAA [Mat - Exclusion 2 - JL mod - D82]”: the “apparent KD of MS2 coat protein” value with MS2 coat protein [1] worked out at 17.9 nM; with MS2 coat protein [2] it was 25.2 nM.

Take “AAAAAGACAGGAUAUACAUGAAAAAAAAAAAAAAAAAAAAAACAUGAGGAUCACCCAUGUAGAAGGGUCAAAAA [Starry's Exclusion 2]”: the “apparent KD of MS2 coat protein” value was found to be 54.6 nM in the data set with MS2 coat protein [1] and 71.6 nM in the data set with MS2 coat protein [2].

Take “AAAAAGAGAGGAUAUACAGGAGGACCACCACAAAAAAAAAUACAUGAGGAUCACCCAUGUAGAAGGCUCAAAAA [Default title]”: the figures for the “apparent KD of MS2 coat protein” value with MS2 coat protein [1] and in the data set on MS2 coat protein [2] were 66.1 nM and 35.1 nM, respectively.

On to “AAAAAGAUAGGAUAUACGUACAUGUCGAAAGACGUGAAGGGACAUGAGGAUCACCCAUGUAGAAGGAUUAAAAA [Mat - Exclusion 2 - JL mod - D90]”, for which the results for the “apparent KD of MS2 coat protein” value with MS2 coat protein [1] and with MS2 coat protein [2] were 14.5 nM and 43.8 nM, respectively.

Consider “AAAAAGCGAGGAUAUACAUGAGGAUCACCCAUGUCAAACGGUAAGACCGCAGGAAAAAGUAGAAGGCGCAAAAA [Exclusion3-02]”, for which the “apparent KD of MS2 coat protein” value with MS2 coat protein [1] amounted to 96.8 nM; in the data set on MS2 coat protein [2] it was 65.9 nM.

“AAAAAGCGAGGAUAUACAUGAGGAUCACCCAUGUGAAAAAAAAAAUAAUAAAUAAAAGGUAGAAGGCGCAAAAA [V1]”: the entries for the “apparent KD of MS2 coat protein” value with MS2 coat protein [1] and with MS2 coat protein [2] were 87.9 nM and 72 nM, respectively.

In the case of “AAAAAGCUAGGAUAUACGAAAAAAAAGGGUAAAAUAAAUAAACAUGAGGAUCACCCAUGUAGAAGGAGCAAAAA [Mat - Exclusion 2 - Tesla mod - D37]”, the entries for the “apparent KD of MS2 coat protein” value with MS2 coat protein [1] and in the data set with MS2 coat protein [2] were 38.3 nM and 42.6 nM, respectively.

“AAAAAGGAAGGAUAUACGAACAUGUCAAAAGACGUGAAGGGACAUGAGGAUCACCCAUGUAGAAGGUUUAAAAA [JL Wide Open 25]”: the “apparent KD of MS2 coat protein” value turned out to be 18.6 nM with MS2 coat protein [1] and 39.3 nM in the data set with MS2 coat protein [2].

Regarding “AAAAAGGAAGGAUAUACGAACAUGUCGAAAGACGUGAAGGGACAUGAGGAUCACCCAUGUAGAAGGUCCAAAAA [Mat - Exclusion 2 - JL mod - D79]”, the figures for the “apparent KD of MS2 coat protein” value in the data set on MS2 coat protein [1] and in the data set with MS2 coat protein [2] were 45.8 nM and 47.2 nM, respectively.

As to “AAAAAGGCAGGAUAUACAUGAGGAUCACCCAUGUAAAAAAAAAAAAAGGGAAAAAAAAGUAGAAGGGCCAAAAA [Khamudi]”, the “apparent KD of MS2 coat protein” value in the data set with MS2 coat protein [1] was 48.5 nM; in the data set with MS2 coat protein [2], 35.8 nM.

“AAAAAGGCAGGAUAUACGAACAUGUCAAAAGACGUGAAGGGACAUGAGGAUCACCCAUGUAGAAGGGUCAAGAA [JL Stem Breaker 18]”: the “apparent KD of MS2 coat protein” value was found to be 52.1 nM with MS2 coat protein [1] and 218 nM with MS2 coat protein [2].

As to “AAAAAGGCAGGAUAUGCAUACUCACGGAAAAAAAGGUUGGGACAUGAGGAUCACCCAUGUAGAAGGGCUAAAAA [Dora Explored 15 - Jieux - Exclusion 2]”, the “apparent KD of MS2 coat protein” value with MS2 coat protein [1] came out at 60.8 nM; in the data set on MS2 coat protein [2], 85.2 nM.

For the sequence “AAAAAGGCAGGAUAUGCAUACUCACGGAAAAACUGGAUGGUACAUGAGGAUCACCCAUGUAGAAGGGCUAAAAA [Dora Explored 16 - Jieux - Exclusion 2]”, the figures for the “apparent KD of MS2 coat protein” value in the data set with MS2 coat protein [1] and with MS2 coat protein [2] were 44.3 nM and 55 nM, respectively.

In the case of “AAAAAGGGAGGAUAUACAUGAGGAUCACCCAUGUAAAAAAAAAAAAAAAAAAGGGAAGGUAGAAGGCCCAAAAA [Excls3-I]”, the figures for the “apparent KD of MS2 coat protein” value in the data set with MS2 coat protein [1] and in the data set on MS2 coat protein [2] were 21.1 nM and 64.6 nM, respectively.

Turning to “AAAAAGGGAGGAUAUACAUGAGGAUCACCCAUGUAUCAGACGAAAAAGAGUCUGAAGUGUAGAAGGCCCAAAAA [Exclusion3-cac2]”, the “apparent KD of MS2 coat protein” value with MS2 coat protein [1] is 25.6 nM; with MS2 coat protein [2] it was 20 nM.

As for “AAAAAGGGAGGAUAUGCAUAAAAAAAAAAAAAAAAAAAAAAACAUGAGGAUCACCCAUGUAGAAGGCCCAAAAA [Dora Explored - Jieux - Exclusion 2]”, the “apparent KD of MS2 coat protein” value turned out to be 36.3 nM in the data set with MS2 coat protein [1] and 58 nM in the data set on MS2 coat protein [2].

As to “AAAAAGGGAGGAUAUGCAUACACACAAAAAAAAAAACCGGGACAUGAGGAUCACCCAUGUAGAAGGCCCAAAAA [Dora Explored 6 - Jieux - Exclusion 2]”, the “apparent KD of MS2 coat protein” value in the data set on MS2 coat protein [1] turned out to be 25 nM; in the data set on MS2 coat protein [2], 33.5 nM.

For the sequence “AAAAAGUAAGGAUAUACAAAAAUAAAAAAUUAUGAUAAAAAACAUGAGGAUCACCCAUGUAGAAGGUACGAAAA [AJ 3]”, the results for the “apparent KD of MS2 coat protein” value in the data set with MS2 coat protein [1] and with MS2 coat protein [2] were 26.7 nM and 27.5 nM, respectively.

Take “AAAAAGUAAGGAUAUAUAAAAAUAAAAAAUUAUGAUAAAAAACAUGAGGAUCACCCAUGUAGAAGGUACGAAAA [AJ 2]”: the “apparent KD of MS2 coat protein” value was determined as 25.6 nM with MS2 coat protein [1] and 26.2 nM in the data set with MS2 coat protein [2].

As to “AAAAAGUCAGGAUAUACAGAAAAAAAAACGAAAAAAAAUCUGUAGAAGGGACAUGAGGAUCACCCAUGUUAAAA [Ex 4 May 13]”, the “apparent KD of MS2 coat protein” value in the data set on MS2 coat protein [1] came to 26.8 nM; with MS2 coat protein [2] it was 41.5 nM.

In the case of “AAAAAGUCAGGAUAUACAGGAGUGCGAAAGCACAAAAAAAAACAUGAGGAUCACCCAUGUAGAAGGGACAAGAA [Married to this design, 61% 6]”, the entries for the “apparent KD of MS2 coat protein” value with MS2 coat protein [1] and with MS2 coat protein [2] were 33.1 nM and 52.7 nM, respectively.

For the sequence “AAAAAGUCAGGAUAUACGAAAGUGCGAAAGCACAAAAGGAAACAUGAGGAUCACCCAUGUAGAAGGGACAAGAA [Married to this design, 61% 1]”, the “apparent KD of MS2 coat protein” value came to 32.8 nM with MS2 coat protein [1] and 45.4 nM in the data set with MS2 coat protein [2].

With “AAAAAGUCAGGAUAUACGAACAUGUCAAAAGACGUGAAGGGACAUGAGGAUCACCCAUGUAGAAGGGACAAGAA [JL Stem Breaker 20]”, the results for the “apparent KD of MS2 coat protein” value in the data set with MS2 coat protein [1] and in the data set on MS2 coat protein [2] were 39.6 nM and 85.2 nM, respectively.
